Substitutions are numbered along the chain they refer to.
B1: AlaPro-mTGase from S. mobaraensis (enzyme)
chain: APDSDDRVTPPAEPLDRMPDPYRPSYGRAETVVNNYIRKWQQVYSHRDGRKQQMTEEQREWLSYGCVGVTWVNSGQYPTNRLAFASFDEDRFKNELKNGRPRSGETRAEFEGRVAKESFDEEKGFQRAREVASVMNRALENAHDESAYLDNLKKELANGNDALRNEDARSPFYSALRNTPSFKERNGGNHDPSRMKAVIYSKHFWSGQDRSSSADKRKYGDPDAFRPAPGTGLVDMSRDRNIPRSPTSPGEGFVNFDYGWFGAQTEADADKTVWTHGNHYHAPNGSLGAMHVYESKFRNWSEGYSDFDRGAYVITFIPKSWNTAPDKVKQGWP
B2: GlyPro-mTGase from S. ladakanum (enzyme)
chain: GPDSDERVTPPAEPLDRMPDPYRPSYGRAETIVNNYIRKWQQVYSHRDGRKQQMTEEQREWLSYGCVGVTWVNSGQYPTNRLAFAFFDEDKYKNELKNGRPRSGETRAEFEGRVAKDSFDEAKGFQRARDVASVMNKALENAHDEGAYLDNLKKELANGNDALRNEDARSPFYSALRNTPSFKDRNGGNHDPSKMKAVIYSKHFWSGQDRSGSSDKRKYGDPEAFRPDRGTGLVDMSRDRNIPRSPTSPGESFVNFDYGWFGAQTEADADKTVWTHGNHYHAPNGSLGAMHVYESKFRNWSDGYSDFDRGAYVVTFVPKSWNTAPDKVKQGWP
B3: GlyPro-mTGase_Y75F from S. ladakanum (enzyme)
chain: B2 chain with Y77F
B4: GlyPro-mTGase_Y75N from S. ladakanum (enzyme)
chain: B2 chain with Y77N
B5: GlyPro-mTGase_Y75A from S. ladakanum (enzyme)
chain: B2 chain with Y77A
B6: GlyPro-mTGase_Y62H_Y75N from S. ladakanum (enzyme)
chain: B2 chain with Y64H, Y77N
B7: GlyPro-mTGase_Y62H_Y75F from S. ladakanum (enzyme)
chain: B2 chain with Y64H, Y77F, K329T

Target: wild type human growth hormone (human, UniProt P01241 27-217)
Assay: cell-based or functional assay

Sequence of wild type human growth hormone (P01241 27-217): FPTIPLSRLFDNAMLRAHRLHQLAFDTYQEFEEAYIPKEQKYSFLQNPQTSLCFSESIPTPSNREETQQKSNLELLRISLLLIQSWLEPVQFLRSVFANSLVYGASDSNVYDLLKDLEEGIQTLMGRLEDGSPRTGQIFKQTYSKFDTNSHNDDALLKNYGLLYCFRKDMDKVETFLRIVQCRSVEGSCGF

Row | Binder | RS (relative selectivity) | Selectivity (Q141/Q40), CE
1 | B1 | 1 | 5.7
2 | B2 | 1.8 | 10.3
3 | B3 | 5.1 | 29.1
4 | B4 | 3.4 | 19.3
5 | B5 | 3 | 17.3
6 | B6 | 4.6 | 26.3
7 | B7 | 6.4 | 36.2

Source: patent US20090318349A1 (Novo Nordisk, published 2009)
